Experimental data: patent publication US20180086804A1 (COMMISSARIAT A L ENERGIE ATOMIQUE ET AUX ENERGIES …, published 2018)
No end group written: not given here.

These binders were tested against T1, HLA-DRB4 (HLA-DRB4*01:01) (human) (assay: competition ELISA vs biotin-E2/E168).
T1 construct: mature; purified from homozygous EBV-transformed lymphoblastoid cells with antibody L243
For RPLPLHFLRRASKIG-NH2 [CCNB1 299-313], the relative affinity was 13.

What follows are binders tested against T2, HLA-DR3 (HLA-DRB1*03:01) (human) (assay: competition ELISA vs biotin-MT 2-16).
T2 construct: mature; purified from homozygous EBV-transformed lymphoblastoid cells with antibody L243
With TAMFIASKYEEMYPP-NH2 [CCNB1 250-264] the relative affinity was 4.
GDFAFVTDNTYTKHQ-NH2 [CCNB1 267-281] gave a relative affinity of 0.2.
SEYVKDIYAYLRQLE-NH2 [CCNB1 168-182] was tested, and the relative affinity was 97.

Each binder was assayed against T3, HLA-DP402 (HLA-DPB1*04:02) (human, UniProt P20036 29-222) (assay: competition ELISA vs biotin-Oxy 271-287).
T3 construct: mature; purified from homozygous EBV-transformed lymphoblastoid cells with antibody B7/21
TAMFIASKYEEMYPP-NH2 [CCNB1 250-264] gave a relative affinity of 1.
SEYVKDIYAYLRQLE-NH2 [CCNB1 168-182] gave a relative affinity of 127.

Each binder was assayed against T4, HLA-DP401 (HLA-DPB1*04:01) (human, UniProt P20036 29-222) (assay: competition ELISA vs biotin-Oxy 271-287).
T4 construct: mature; purified from homozygous EBV-transformed lymphoblastoid cells with antibody B7/21
TAMFIASKYEEMYPP-NH2 [CCNB1 250-264] showed a relative affinity of 0.1.

The binders below were run against T5, HLA-DR4 (HLA-DRB1*04:01) (human) (assay: competition ELISA vs biotin-HA 306-318;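 note: HLA and competitor incubated 24 to 72 h, maximal signal taken from wells lacking competitor, background from wells lacking HLA molecule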).
T5 construct: mature; purified from homozygous EBV-transformed lymphoblastoid cells with antibody L243
EPILVDTASPSPMET-NH2 [CCNB1 118-132] gave a relative affinity of 0.3.

These binders were tested against T6, HLA-DR1 (HLA-DRB1*01:01) (human) (assay: competition ELISA vs biotin-HA 306-318;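 note: HLA and competitor incubated 24 to 72 h, maximal signal taken from wells lacking competitor, background from wells lacking HLA molecule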).
T6 construct: mature; class II HLA molecule purified from homozygous EBV-transformed lymphoblastoid cells with antibody L243
For EPILVDTASPSPMET-NH2 [CCNB1 118-132], the relative affinity was 6360.

What follows are binders tested against T7, HLA-DRB3 (HLA-DRB3*01:01) (human) (assay: competition ELISA vs biotin-LOL 191-210).
T7 construct: mature; purified from homozygous EBV-transformed lymphoblastoid cells with antibody L243
In the case of TAMFIASKYEEMYPP-NH2 [CCNB1 250-264], the relative affinity is reported as 34.
GDFAFVTDNTYTKHQ-NH2 [CCNB1 267-281] gave a relative affinity of 38.
Work on SEYVKDIYAYLRQLE-NH2 [CCNB1 168-182] yielded a relative affinity of 30.

Molecular target: T7, HLA-DRB3 (HLA-DRB3*01:01)
Assay: competition ELISA vs biotin-LOL 191-210
Remark: another data set of the same source
EPILVDTASPSPMET-NH2 [CCNB1 118-132] showed a relative affinity of 12.

Molecular target: T3, HLA-DP402 (HLA-DPB1*04:02)
Assay: competition ELISA vs biotin-Oxy 271-287
Remark: another data set of the same source
Binder LSYTEESLLPVMQHL-NH2 [CCNB1 369-383] has a relative affinity of 1.

Molecular target: T4, HLA-DP401 (HLA-DPB1*04:01)
Assay: competition ELISA vs biotin-Oxy 271-287
Remark: another data set of the same source
LSYTEESLLPVMQHL-NH2 [CCNB1 369-383] showed a relative affinity of 4.
QAFSDVILAVNDVDA-NH2 [CCNB1 144-158] showed a relative affinity of 51.

Molecular target: T7, HLA-DRB3 (HLA-DRB3*01:01)
Assay: competition ELISA vs biotin-LOL 191-210
Remark: another data set of the same source
Binder LSYTEESLLPVMQHL-NH2 [CCNB1 369-383] has a relative affinity of 72.
Work on QAFSDVILAVNDVDA-NH2 [CCNB1 144-158] yielded a relative affinity of 18.
FAFVTDNTYTKHQIR-NH2 [CCNB1 269-283] gave a relative affinity of 34.
With PEIGDFAFVTDNTYT-NH2 [CCNB1 264-278] the relative affinity was 19.

Each binder was assayed against T8, HLA-DR11 (HLA-DRB1*11:01) (human) (assay: competition ELISA vs biotin-HA 306-318).
T8 construct: mature; purified from homozygous EBV-transformed lymphoblastoid cells with antibody L243
TAMFIASKYEEMYPP-NH2 [CCNB1 250-264] was tested, and the relative affinity was 6.
Binder GDFAFVTDNTYTKHQ-NH2 [CCNB1 267-281] has a relative affinity of 1330.
For RPLPLHFLRRASKIG-NH2 [CCNB1 299-313], the relative affinity was 0.1.
SEYVKDIYAYLRQLE-NH2 [CCNB1 168-182] gave a relative affinity of 3.

These binders were tested against T9, HLA-DRB5 (HLA-DRB5*01:01) (human) (assay: competition ELISA vs biotin-HA 306-318).
T9 construct: mature; purified from homozygous EBV-transformed lymphoblastoid cells with antibody L243
TAMFIASKYEEMYPP-NH2 [CCNB1 250-264] showed a relative affinity of 82.
In the case of GDFAFVTDNTYTKHQ-NH2 [CCNB1 267-281], the relative affinity is reported as 24.
With RPLPLHFLRRASKIG-NH2 [CCNB1 299-313] the relative affinity was 26.
SEYVKDIYAYLRQLE-NH2 [CCNB1 168-182] showed a relative affinity of 3.

Molecular target: T5, HLA-DR4 (HLA-DRB1*04:01)
Assay: competition ELISA vs biotin-HA 306-318;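 note: HLA and competitor incubated 24 to 72 h, maximal signal taken from wells lacking competitor, background from wells lacking HLA molecule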
Remark: another data set of the same source
In the case of TAMFIASKYEEMYPP-NH2 [CCNB1 250-264], the relative affinity is reported as 70.
Work on GDFAFVTDNTYTKHQ-NH2 [CCNB1 267-281] yielded a relative affinity of 1.
For RPLPLHFLRRASKIG-NH2 [CCNB1 299-313], the relative affinity was 624.

Molecular target: T6, HLA-DR1 (HLA-DRB1*01:01)
Assay: competition ELISA vs biotin-HA 306-318;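 note: HLA and competitor incubated 24 to 72 h, maximal signal taken from wells lacking competitor, background from wells lacking HLA molecule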
Remark: another data set of the same source
For TAMFIASKYEEMYPP-NH2 [CCNB1 250-264], the relative affinity was 22.
In the case of GDFAFVTDNTYTKHQ-NH2 [CCNB1 267-281], the relative affinity is reported as 1500.
In the case of RPLPLHFLRRASKIG-NH2 [CCNB1 299-313], the relative affinity is reported as 63.
SEYVKDIYAYLRQLE-NH2 [CCNB1 168-182] was tested, and the relative affinity was 22.

Molecular target: T2, HLA-DR3 (HLA-DRB1*03:01)
Assay: competition ELISA vs biotin-MT 2-16
Remark: another data set of the same source
Binder EPILVDTASPSPMET-NH2 [CCNB1 118-132] has a relative affinity of 0.4.

Molecular target: T2, HLA-DR3 (HLA-DRB1*03:01)
Assay: competition ELISA vs biotin-MT 2-16
Remark: another data set of the same source
With QAFSDVILAVNDVDA-NH2 [CCNB1 144-158] the relative affinity was 8.
FAFVTDNTYTKHQIR-NH2 [CCNB1 269-283] gave a relative affinity of 0.1.
For PEIGDFAFVTDNTYT-NH2 [CCNB1 264-278], the relative affinity was 85.

What follows are binders tested against T10, HLA-DR15 (HLA-DRB1*15:01) (human) (assay: competition ELISA vs biotin-A3 152-166).
T10 construct: mature; purified from homozygous EBV-transformed lymphoblastoid cells with antibody L243
EPILVDTASPSPMET-NH2 [CCNB1 118-132] showed a relative affinity of 400.

Molecular target: T8, HLA-DR11 (HLA-DRB1*11:01)
Assay: competition ELISA vs biotin-HA 306-318
Remark: another data set of the same source
LSYTEESLLPVMQHL-NH2 [CCNB1 369-383] was tested, and the relative affinity was 45.
FAFVTDNTYTKHQIR-NH2 [CCNB1 269-283] was tested, and the relative affinity was 2190.
PEIGDFAFVTDNTYT-NH2 [CCNB1 264-278] gave a relative affinity of 1670.

Molecular target: T9, HLA-DRB5 (HLA-DRB5*01:01)
Assay: competition ELISA vs biotin-HA 306-318
Remark: another data set of the same source
Work on LSYTEESLLPVMQHL-NH2 [CCNB1 369-383] yielded a relative affinity of 1380.
FAFVTDNTYTKHQIR-NH2 [CCNB1 269-283] gave a relative affinity of 42.
For PEIGDFAFVTDNTYT-NH2 [CCNB1 264-278], the relative affinity was 61.

Molecular target: T5, HLA-DR4 (HLA-DRB1*04:01)
Assay: competition ELISA vs biotin-HA 306-318
Remark: another data set of the same source
Binder LSYTEESLLPVMQHL-NH2 [CCNB1 369-383] has a relative affinity of 58.
QAFSDVILAVNDVDA-NH2 [CCNB1 144-158] was tested, and the relative affinity was 12.
FAFVTDNTYTKHQIR-NH2 [CCNB1 269-283] showed a relative affinity of 0.4.
PEIGDFAFVTDNTYT-NH2 [CCNB1 264-278] showed a relative affinity of 2.

Molecular target: T6, HLA-DR1 (HLA-DRB1*01:01)
Assay: competition ELISA vs biotin-HA 306-318
Remark: another data set of the same source
With LSYTEESLLPVMQHL-NH2 [CCNB1 369-383] the relative affinity was 212.
QAFSDVILAVNDVDA-NH2 [CCNB1 144-158] gave a relative affinity of 1730.
FAFVTDNTYTKHQIR-NH2 [CCNB1 269-283] showed a relative affinity of 1340.
Work on PEIGDFAFVTDNTYT-NH2 [CCNB1 264-278] yielded a relative affinity of 7000.

Molecular target: T10, HLA-DR15 (HLA-DRB1*15:01)
Assay: competition ELISA vs biotin-A3 152-166
Remark: another data set of the same source
LSYTEESLLPVMQHL-NH2 [CCNB1 369-383] gave a relative affinity of 350.
Work on QAFSDVILAVNDVDA-NH2 [CCNB1 144-158] yielded a relative affinity of 46.
FAFVTDNTYTKHQIR-NH2 [CCNB1 269-283] was tested, and the relative affinity was 17.
PEIGDFAFVTDNTYT-NH2 [CCNB1 264-278] gave a relative affinity of 300.

The binders below were run against T11, HLA-DR7 (HLA-DRB1*07:01) (human) (assay: competition ELISA vs biotin-YKL).
T11 construct: mature; purified from homozygous EBV-transformed lymphoblastoid cells with antibody L243
In the case of TAMFIASKYEEMYPP-NH2 [CCNB1 250-264], the relative affinity is reported as 4.
GDFAFVTDNTYTKHQ-NH2 [CCNB1 267-281] was tested, and the relative affinity was 22.
RPLPLHFLRRASKIG-NH2 [CCNB1 299-313] was tested, and the relative affinity was 35.
SEYVKDIYAYLRQLE-NH2 [CCNB1 168-182] showed a relative affinity of 346.

Molecular target: T10, HLA-DR15 (HLA-DRB1*15:01)
Assay: competition ELISA vs biotin-A3 152-166
Remark: another data set of the same source
Binder TAMFIASKYEEMYPP-NH2 [CCNB1 250-264] has a relative affinity of 9.
Binder GDFAFVTDNTYTKHQ-NH2 [CCNB1 267-281] has a relative affinity of 86.
Binder RPLPLHFLRRASKIG-NH2 [CCNB1 299-313] has a relative affinity of 200.
With SEYVKDIYAYLRQLE-NH2 [CCNB1 168-182] the relative affinity was 12.

These binders were tested against T12, HLA-DR13 (HLA-DRB1*13:01) (human) (assay: competition ELISA vs biotin-B1 21-36).
T12 construct: mature; purified from homozygous EBV-transformed lymphoblastoid cells with antibody L243
TAMFIASKYEEMYPP-NH2 [CCNB1 250-264] was tested, and the relative affinity was 3.
For GDFAFVTDNTYTKHQ-NH2 [CCNB1 267-281], the relative affinity was 62.
With RPLPLHFLRRASKIG-NH2 [CCNB1 299-313] the relative affinity was 0.2.
SEYVKDIYAYLRQLE-NH2 [CCNB1 168-182] gave a relative affinity of 12.

Molecular target: T11, HLA-DR7 (HLA-DRB1*07:01)
Assay: competition ELISA vs biotin-YKL
Remark: another data set of the same source
With LSYTEESLLPVMQHL-NH2 [CCNB1 369-383] the relative affinity was 91.
FAFVTDNTYTKHQIR-NH2 [CCNB1 269-283] showed a relative affinity of 577.
For PEIGDFAFVTDNTYT-NH2 [CCNB1 264-278], the relative affinity was 86.
